Reference: article PMC8303780, “Mutational Analysis of Redβ Single Strand Annealing Protein: Roles of the 14 Lysine Residues in DNA Binding and Recombination In Vivo”
Changes are numbered by the printed parent chain.

Assays:
Assay in all cases: fluorescence anisotropy
Details in all cases: Anisotropy: 50 mM Tris-HCl pH 7.5, 1 mM DTT, 0.1 mg/mL BSA, 10 nM FAM48, 23 °C (Kd per monomer), gel assay: 10 µM Redβ, 50 µM nt of each oligo, PBS, 37 °C
[1] = biological target: T1, Redβ WT (bacteriophage λ, UniProt P03698 1-261)
T1 sequence: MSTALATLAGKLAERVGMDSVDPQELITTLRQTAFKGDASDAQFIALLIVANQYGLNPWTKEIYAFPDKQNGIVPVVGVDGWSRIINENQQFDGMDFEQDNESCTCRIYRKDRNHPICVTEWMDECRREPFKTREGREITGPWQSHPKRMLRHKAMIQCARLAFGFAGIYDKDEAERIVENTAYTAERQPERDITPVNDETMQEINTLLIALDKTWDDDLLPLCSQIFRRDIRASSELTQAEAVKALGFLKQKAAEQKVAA

[2] = biological target: T2, Redβ K11A K11A (bacteriophage λ) (UniProt P03698)
T2 sequence: T1 sequence with K11A

[3] = biological target: T3, Redβ K132A K132A (bacteriophage λ) (UniProt P03698)
T3 sequence: T1 sequence with K132A

[4] = biological target: T4, Redβ K148A K148A (bacteriophage λ) (UniProt P03698)
T4 sequence: T1 sequence with K148A

[5] = biological target: T5, Redβ K154A K154A (bacteriophage λ) (UniProt P03698)
T5 sequence: T1 sequence with K154A

[6] = biological target: T6, Redβ K245A K245A (bacteriophage λ) (UniProt P03698)
T6 sequence: T1 sequence with K245A

[7] = biological target: T7, Redβ K251A K251A (bacteriophage λ) (UniProt P03698)
T7 sequence: T1 sequence with K251A

[8] = biological target: T8, Redβ K253A K253A (bacteriophage λ) (UniProt P03698)
T8 sequence: T1 sequence with K253A

[9] = biological target: T9, Redβ K69A K69A (bacteriophage λ) (UniProt P03698)
T9 sequence: T1 sequence with K69A

## FAM48 48-mer ssDNA
[1]
  Kd: 110 nM
[2]
  Kd: 230 nM
[3]
  Kd: 1770 nM
[4]
  Kd: 14100 nM
[5]
  Kd: 2100 nM
[6]
  Kd: 160 nM
[7]
  Kd: 190 nM
[8]
  Kd: 210 nM
[9]
  Kd: 410 nM
